Molecular target: 70S ribosomes from E. coli MRE600 (vacant) (E. coli)
Test: stopped-flow Rayleigh light scattering (325 nm) of 70S dissociation; 70S ribosomes (0.05 uM) rapidly mixed with increasing GTPBP6 with 0.5 mM GTP, phosphoenol pyruvate and pyruvate kinase; 50 mM Tris-HCl pH 7.5, 70 mM NH4Cl, 30 mM KCl, 7 mM MgCl2, 37°C; kapp against GTPBP6 concentration, linear fit: slope = association, intercept = dissociation rate constant, Kd from their ratio

B1: GTPBP6Δ43 (purified recombinant GTPBP6) (domain or fragment)
chain: PGNLEGPWGGGRGLRADGGRSRTGDDEEEPEDADENAEEELLRGEPLLPAGTQRVCLVHPDVKWGPGKSQMTRAEWQVAEATALVHTLDGWSVVQTMVVSTKTPDRKLIFGKGNFEHLTEKIRGSPDITCVFLNVERMAAPTKKELEAAWGVEVFDRFTVVLHIFRCNARTKEARLQVALAEMPLHRSNLKRDVAHLYRGVGSRYIMGSGESFMQLQQRLLREKEAKIRKALDRLRKKRHLLRRQRTRREFPVISVVGYTNCGKTTLIKALTGDAAIQPRDQLFATLDVTAHAGTLPSRMTVLYVDTIGFLSQLPHGLIESFSATLEDVAHSDLILHVRDVSHPEAELQKCSVLSTLRGLQLPAPLLDSMVEVHNKVDLVPGYSPTEPNVVPVSALRGHGLQELKAELDAAVLKATGRQILTLRVRLAGAQLSWLYKEATVQEVDVIPEDGAADVRVIISNSAYGKFRKLFPG
Kd: 0.7 µM | koff: 0.09 s⁻¹ | kon: 130000 M⁻¹ s⁻¹
